From article PMC9285637 (Molecular cancer research : MCR, 2019)

T1: mCherry-LacI-PALB2^WD40 (UniProt Q86YC2 841-1186)
T1 sequence (looked up): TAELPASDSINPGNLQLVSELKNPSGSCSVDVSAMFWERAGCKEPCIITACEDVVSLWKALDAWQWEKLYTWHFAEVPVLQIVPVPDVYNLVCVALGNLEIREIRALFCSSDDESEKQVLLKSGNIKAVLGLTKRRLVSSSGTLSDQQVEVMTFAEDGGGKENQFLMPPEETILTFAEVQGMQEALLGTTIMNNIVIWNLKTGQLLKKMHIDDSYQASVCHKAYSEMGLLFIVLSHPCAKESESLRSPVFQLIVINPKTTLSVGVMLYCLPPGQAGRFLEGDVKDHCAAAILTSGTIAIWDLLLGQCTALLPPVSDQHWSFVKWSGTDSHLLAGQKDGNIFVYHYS

T2: mCherry-LacI-PALB2^FL (UniProt Q86YC2 1-1186)
T2 sequence (looked up): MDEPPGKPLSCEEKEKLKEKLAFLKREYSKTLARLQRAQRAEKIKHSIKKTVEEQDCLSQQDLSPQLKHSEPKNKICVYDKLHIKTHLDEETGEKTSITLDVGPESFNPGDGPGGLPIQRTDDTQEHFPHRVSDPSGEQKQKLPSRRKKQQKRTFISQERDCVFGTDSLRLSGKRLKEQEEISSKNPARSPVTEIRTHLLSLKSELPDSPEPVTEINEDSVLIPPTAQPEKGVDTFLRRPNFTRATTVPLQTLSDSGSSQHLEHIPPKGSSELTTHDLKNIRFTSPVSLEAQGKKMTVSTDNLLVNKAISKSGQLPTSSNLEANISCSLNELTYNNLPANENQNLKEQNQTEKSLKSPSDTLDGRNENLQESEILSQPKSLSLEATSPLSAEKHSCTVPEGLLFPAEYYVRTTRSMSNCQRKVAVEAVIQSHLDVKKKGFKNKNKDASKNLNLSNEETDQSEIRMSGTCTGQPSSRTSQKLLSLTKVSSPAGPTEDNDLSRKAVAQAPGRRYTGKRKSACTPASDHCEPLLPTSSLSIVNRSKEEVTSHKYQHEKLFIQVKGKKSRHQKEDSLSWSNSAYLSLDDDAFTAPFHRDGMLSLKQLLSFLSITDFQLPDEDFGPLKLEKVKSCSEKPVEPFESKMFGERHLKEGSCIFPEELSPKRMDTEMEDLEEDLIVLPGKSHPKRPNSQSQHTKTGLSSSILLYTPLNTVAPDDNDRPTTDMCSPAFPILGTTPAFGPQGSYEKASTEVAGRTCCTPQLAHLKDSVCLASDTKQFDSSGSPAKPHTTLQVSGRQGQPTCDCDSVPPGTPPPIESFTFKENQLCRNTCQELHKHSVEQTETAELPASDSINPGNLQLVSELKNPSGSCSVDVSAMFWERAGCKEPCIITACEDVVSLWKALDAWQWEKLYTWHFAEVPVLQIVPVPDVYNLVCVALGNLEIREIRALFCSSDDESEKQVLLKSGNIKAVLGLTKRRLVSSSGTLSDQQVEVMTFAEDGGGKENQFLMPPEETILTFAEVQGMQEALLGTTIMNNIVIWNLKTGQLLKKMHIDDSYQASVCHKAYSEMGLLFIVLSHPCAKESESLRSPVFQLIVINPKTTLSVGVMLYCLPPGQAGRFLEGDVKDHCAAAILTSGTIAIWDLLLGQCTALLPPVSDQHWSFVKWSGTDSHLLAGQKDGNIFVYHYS


How the values were obtained:
mCherry-LacI-PALB2^WD40 = biological target: T1, mCherry-LacI-PALB2^WD40; assay: LacO/LacI tethering recruitment assay
mCherry-LacI-PALB2^FL = biological target: T2, mCherry-LacI-PALB2^FL; assay: LacO/LacI tethering recruitment assay

Binder	percent of cells with recruitment of GFP-USP22 to the LacO array (mCherry-LacI-PALB2^WD40) [%]	percent of cells with recruitment of GFP-USP22 to the LacO array (mCherry-LacI-PALB2^FL) [%]
GFP-USP22^DUB (domain or fragment, human, UniProt Q9UPT9 164-525, looked up) RRKITSNCTIGLRGLINLGNTCFMNCIVQALTHTPLLRDFFLSDRHRCEMQSPSSCLVCEMSSLFQEFYSGHRSPHIPYKLLHLVWTHARHLAGYEQQDAHEFLIAALDVLHRHCKGDDNGKKANNPNHCNCIIDQIFTGGLQSDVTCQVCHGVSTTIDPFWDISLDLPGSSTPFWPLSPGSEGNVVNGESHVSGTTTLTDCLRRFTRPEHLGSSAKIKCSGCHSYQESTKQLTMKKLPIVACFHLKRFEHSAKLRRKITTYVSFPLELDMTPFMASSKESRMNGQYQQPTDSLNNDNKYSLFAVVNHQGTLESGHYTSFIRQHKDQWFKCDDAIITKASIKDVLDSEGYLLFYHKQFLEYE	55	
GFP-USP22 (enzyme, human, UniProt Q9UPT9 1-525, looked up) MVSRPEPEGEAMDAELAVAPPGCSHLGSFKVDNWKQNLRAIYQCFVWSGTAEARKRKAKSCICHVCGVHLNRLHSCLYCVFFGCFTKKHIHEHAKAKRHNLAIDLMYGGIYCFLCQDYIYDKDMEIIAKEEQRKAWKMQGVGEKFSTWEPTKRELELLKHNPKRRKITSNCTIGLRGLINLGNTCFMNCIVQALTHTPLLRDFFLSDRHRCEMQSPSSCLVCEMSSLFQEFYSGHRSPHIPYKLLHLVWTHARHLAGYEQQDAHEFLIAALDVLHRHCKGDDNGKKANNPNHCNCIIDQIFTGGLQSDVTCQVCHGVSTTIDPFWDISLDLPGSSTPFWPLSPGSEGNVVNGESHVSGTTTLTDCLRRFTRPEHLGSSAKIKCSGCHSYQESTKQLTMKKLPIVACFHLKRFEHSAKLRRKITTYVSFPLELDMTPFMASSKESRMNGQYQQPTDSLNNDNKYSLFAVVNHQGTLESGHYTSFIRQHKDQWFKCDDAIITKASIKDVLDSEGYLLFYHKQFLEYE	37.5	35
